Among the data in patent US20220340666A1 (NEW YORK UNIVERSITY, published 2022) are binding result and Kd values, retold here.

The target in test [1] is T1, human Galectin-9 CRD2 (residues 218-355), biotinylated (human, UniProt O00182 218-355, biotinylated in vitro with BirA (Avitag)).
T1 construct: also called wild type human Galectin-9 CRD2; not shown: hexahistidine tag, Avitag and TEV cleavage site upstream of the cloned gene (pHBT vector)
Description: phage ELISA, phage-displayed Fab; also on CRD2 pre-incubated with G9.2-17 IgG. As to the method:
(§1) FIG. 13 is a graph showing a binding characterization of G9.2 Fab clone for wild-type Galectin-9 CRD2 or the […] mutant using phage ELISA. Binding of Fab clones to human Galectin-9 CRD2 assayed using phage ELISA.
(§2) Potential additional epitopes were explored using additional clones that bind to Galectin-9 CRD2. A phage display library selection using a modified scheme so as to enrich clones that bind to an epitope that is distinct from that of G9.2-17 was performed.
For orientation: An ELISA detects its analyte on a solid surface through an enzyme-linked reagent.

In test [2] the target is T2, human Galectin-9 CRD2 W309K mutant, biotinylated (human, UniProt O00182 218-355, biotinylated (Avitag)).
T2 construct: also called W309K Galectin-9 CRD2 mutant; not shown: tags of the pHBT vector as for wild-type CRD2
T2 sequence (O00182 218-355 W309K): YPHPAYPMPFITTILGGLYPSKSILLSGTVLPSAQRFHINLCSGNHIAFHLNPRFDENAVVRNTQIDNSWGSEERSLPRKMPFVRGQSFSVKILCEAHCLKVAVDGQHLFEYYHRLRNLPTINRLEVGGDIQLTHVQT
Kind of test: phage ELISA, phage-displayed Fab. As to the method:
as §1, §2

In test [3] the target is T3, human Galectin-9 CRD1 (residues 1-148), biotinylated (human, UniProt O00182 1-148, biotinylated in vitro with BirA (Avitag)).
T3 construct: Made as GST fusion, GST cleaved off with thrombin, gel filtered, biotinylated; not shown: Avitag upstream of the cloned gene (pGEX vector), left after thrombin cleavage from GST
T3 sequence (O00182 1-148): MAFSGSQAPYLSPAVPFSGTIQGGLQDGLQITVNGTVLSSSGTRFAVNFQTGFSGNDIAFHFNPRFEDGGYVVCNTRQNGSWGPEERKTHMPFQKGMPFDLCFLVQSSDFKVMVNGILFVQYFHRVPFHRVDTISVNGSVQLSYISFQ
Kind of test: phage ELISA, phage-displayed Fab on biotinylated CRD.

For test [4], the target named is T3, human Galectin-9 CRD1 (residues 1-148), …. Description: bead-based binding assay, flow cytometry. As to the method:
(§3) The affinities of the antibodies were assessed using a bead-based assay as previously described (Nishikori et al., J Mol Biol, 2012, 424, 391-399) and surface plasmon resonance (SPR). In the bead-based assay, a biotinylated protein (either a Galectin-9 sample or a Fab sample) was immobilized on streptavidin-coated Dynabeads M280 via the biotin-streptavidin interaction. After blocking the excess biotin-binding sites on the beads using unconjugated biotin, binding titration was performed by incubating the second component (i.e., Fab for immobilized Galectin-9 or vice versa), followed by quantification using a dye-labeled neutravidin (ThermoFisher) and flow cytometry analysis. In experiments where the second component is an IgG, a dye-labeled anti-human IgG or anti-mouse IgG antibody was used for detection.
In general terms: In flow cytometry, cells or beads pass a laser one at a time.

The target is the same in test [5]. Description: bead-based binding assay, flow cytometry. The protocol:
as §3
This is another data set of the same source.

Test [6] shares this target. Description: bead-based binding assay, flow cytometry. The protocol: as §3
This is another data set of the same source.

The target in test [7] is T1, human Galectin-9 CRD2 (residues …). Description: bead-based binding assay.

Where two headings read alike, the source gives them in different places.

T1 sequence (O00182 218-355 limits assumed): as the sequence (O00182 218-355 W309K) above, with K92W counted along it

B1: G9.2-26 Fab (Fab, V domains shown)
VH: EVQLVESGGGLVQPGGSLRLSCAASGFTVSSSSIHWVRQAPGKGLEWVAYISSYSGSTYYADSVKGRFTISADTSKNTAYLQMNSLRAEDTAVYYCARSSALYWMDFSYSALDYWGQGTLVTVSS
VL: DIQMTQSPSSLSASVGDRVTITCRASQSVSSAVAWYQQKPGKAPKLLIYSASSLYSGVPSRFSGSRSGTDFTLTISSLQPEDFATYYCQQGGWYYGPITFGQGTKVEIKR
For B1, the binding result in test [1] and in test [2] was “binds” throughout.

B2: G9.1-9 Fab (Fab, V domains shown)
VH: EVQLVESGGGLVQPGGSLRLSCAASGFTVSSSSIHWVRQAPGKGLEWVAYIYSSSGYTSYADSVKGRFTISADTSKNTAYLQMNSLRAEDTAVYYCARYSSYHYPYWLFAMDYWGQGTLVTVSS
VL: DIQMTQSPSSLSASVGDRVTITCRASQSVSSAVAWYQQKPGKAPKLLIYSASSLYSGVPSRFSGSRSGTDFTLTISSLQPEDFATYYCQQSYFHKIPITFGQGTKVEIKR
For B2, in test [3], the binding result is reported as “binds”.

B3: G9.1-7 Fab (Fab, V domains shown)
VH: EVQLVESGGGLVQPGGSLRLSCAASGFTVSSSSIHWVRQAPGKGLEWVASISSYYGYTYYADSVKGRFTISADTSKNTAYLQMNSLRAEDTAVYYCARSYSYGYDYFVKYYTMDYWGQGTLVTVSS
VL: DIQMTQSPSSLSASVGDRVTITCRASQSVSSAVAWYQQKPGKAPKLLIYSASSLYSGVPSRFSGSRSGTDFTLTISSLQPEDFATYYCQQYPGYRGLITFGQGTKVEIKR
Take B3: the binding result in test [3] is “binds”.

B4: G9.1-8 Fab (Fab, V domains shown)
VH: EVQLVESGGGLVQPGGSLRLSCAASGFTVSSSSIHWVRQAPGKGLEWVAYIYPYSGYTSYADSVKGRFTISADTSKNTAYLQMNSLRAEDTAVYYCARYSTYSWGGIGKWVWGMDYWGQGTLVTVSS
VL: DIQMTQSPSSLSASVGDRVTITCRASQSVSSAVAWYQQKPGKAPKLLIYSASSLYSGVPSRFSGSRSGTDFTLTISSLQPEDFATYYCQQSYYDSNPITFGQGTKVEIKR
notes: Avitag at the C-terminus of the heavy chain, biotinylated when required; also called G9.1-8 WT Fab
The term Kd denotes the free concentration of one partner at which half of the binding sites on the other are occupied at equilibrium, for simple one-to-one binding. B4: the Kd in test [4] turned out to be 2.13 nM; in test [5] it was 0.45 nM.

B5: G9.1-8 WT mIgG1 (antibody, V domains shown)
VH: EVQLVESGGGLVQPGGSLRLSCAASGFTVSSSSIHWVRQAPGKGLEWVAYIYPYSGYTSYADSVKGRFTISADTSKNTAYLQMNSLRAEDTAVYYCARYSTYSWGGIGKWVWGMDYWGQGTLVTVSS
VL: DIQMTQSPSSLSASVGDRVTITCRASQSVSSAVAWYQQKPGKAPKLLIYSASSLYSGVPSRFSGSRSGTDFTLTISSLQPEDFATYYCQQSYYDSNPITFGQGTKVEIKR
On to B5, for which the Kd in test [6] was 0.63 nM; in test [5] it was 2.4 nM.

B6: G9.1-5 Fab (Fab, V domains shown)
VH: EVQLVESGGGLVQPGGSLRLSCAASGFTIYYSSIHWVRQAPGKGLEWVASISSSYGSTYYADSVKGRFTISADTSKNTAYLQMNSLRAEDTAVYYCARSVSWYPYYYYYGYGSGLDYWGQGTLVTVSS
VL: DIQMTQSPSSLSASVGDRVTITCRASQSVSSAVAWYQQKPGKAPKLLIYSASSLYSGVPSRFSGSRSGTDFTLTISSLQPEDFATYYCQQYYGWFYPVTFGQGTKVEIKR
notes: Avitag at the C-terminus of the heavy chain, biotinylated when required
In the case of B6, the binding result in test [3] is “binds”.

B7: G9.1-8m14 mIgG2a (antibody, V domains shown)
VH: EVQLVESGGGLVQPGGSLRLSCAASGFTVSSSSIHWVRQAPGKGLEWVAYIYPYSSSSSYADSVKGRFTISADTSKNTAYLQMNSLRAEDTAVYYCARYSTYKWVWGMDYWGQGTLVTVSS
VL: DIQMTQSPSSLSASVGDRVTITCRASQSVSSAVAWYQQKPGKAPKLLIYSASSLYSGVPSRFSGSRSGTDFTLTISSLQPEDFATYYCQQSYYDSNPITFGQGTKVEIKR
notes: also called G9.1-8mut14
As to B7, binding in test [6] was characterised by a dissociation constant (Kd) of 2.01 nM. Besides, the binding result in test [7] is “no binding”.

B8: G9.1-8m14 Fab (Fab, V domains shown)
VH: EVQLVESGGGLVQPGGSLRLSCAASGFTVSSSSIHWVRQAPGKGLEWVAYIYPYSSSSSYADSVKGRFTISADTSKNTAYLQMNSLRAEDTAVYYCARYSTYKWVWGMDYWGQGTLVTVSS
VL: DIQMTQSPSSLSASVGDRVTITCRASQSVSSAVAWYQQKPGKAPKLLIYSASSLYSGVPSRFSGSRSGTDFTLTISSLQPEDFATYYCQQSYYDSNPITFGQGTKVEIKR
notes: Purified Fab; also called G9.1-8mut14
On to B8, for which the Kd in test [4] turned out to be 58.5 nM. That is a double-digit nanomolar value.

B9: G9.1-8m12 Fab (Fab, V domains shown)
VH: EVQLVESGGGLVQPGGSLRLSCAASGFTVSSSSIHWVRQAPGKGLEWVAYIYPYSSSSSYADSVKGRFTISADTSKNTAYLQMNSLRAEDTAVYYCARYSTYSSSKWVWGMDYWGQGTLVTVSS
VL: DIQMTQSPSSLSASVGDRVTITCRASQSVSSAVAWYQQKPGKAPKLLIYSASSLYSGVPSRFSGSRSGTDFTLTISSLQPEDFATYYCQQSYYDSNPITFGQGTKVEIKR
notes: Purified Fab; also called G9.1-8mut12
B9 displayed a Kd in test [4] of 2.48 nM.

B10: G9.1-8m12 mIgG2a (antibody, V domains shown)
VH: EVQLVESGGGLVQPGGSLRLSCAASGFTVSSSSIHWVRQAPGKGLEWVAYIYPYSSSSSYADSVKGRFTISADTSKNTAYLQMNSLRAEDTAVYYCARYSTYSSSKWVWGMDYWGQGTLVTVSS
VL: DIQMTQSPSSLSASVGDRVTITCRASQSVSSAVAWYQQKPGKAPKLLIYSASSLYSGVPSRFSGSRSGTDFTLTISSLQPEDFATYYCQQSYYDSNPITFGQGTKVEIKR
notes: also called G9.1-8mut12
B10 displayed a Kd in test [6] of 0.32 nM. Also, the binding result in test [7] is “no binding”.

B11: G9.1-8m13 mIgG2a (antibody, V domains shown)
VH: EVQLVESGGGLVQPGGSLRLSCAASGFTVSSSSIHWVRQAPGKGLEWVAYIYPYSSSSSYADSVKGRFTISADTSKNTAYLQMNSLRAEDTAVYYCARYSTYSSKWVWGMDYWGQGTLVTVSS
VL: DIQMTQSPSSLSASVGDRVTITCRASQSVSSAVAWYQQKPGKAPKLLIYSASSLYSGVPSRFSGSRSGTDFTLTISSLQPEDFATYYCQQSYYDSNPITFGQGTKVEIKR
notes: also called G9.1-8mut13
Regarding B11, binding in test [6] was characterised by a dissociation constant (Kd) of 0.3 nM. Also, in test [7], the binding result is given as “no binding”.

B12: G9.1-8m13 Fab (Fab, V domains shown)
VH: EVQLVESGGGLVQPGGSLRLSCAASGFTVSSSSIHWVRQAPGKGLEWVAYIYPYSSSSSYADSVKGRFTISADTSKNTAYLQMNSLRAEDTAVYYCARYSTYSSKWVWGMDYWGQGTLVTVSS
VL: DIQMTQSPSSLSASVGDRVTITCRASQSVSSAVAWYQQKPGKAPKLLIYSASSLYSGVPSRFSGSRSGTDFTLTISSLQPEDFATYYCQQSYYDSNPITFGQGTKVEIKR
notes: Purified Fab; also called G9.1-8mut13
B12: in test [4], the Kd amounted to 20.7 nM.

B13: G9.1-4 Fab (Fab, V domains shown)
VH: EVQLVESGGGLVQPGGSLRLSCAASGFTIYYSSIHWVRQAPGKGLEWVASISSSSGSTSYADSVKGRFTISADTSKNTAYLQMNSLRAEDTAVYYCARSYRPYSSYYWGMDYWGQGTLVTVSS
VL: DIQMTQSPSSLSASVGDRVTITCRASQSVSSAVAWYQQKPGKAPKLLIYSASSLYSGVPSRFSGSRSGTDFTLTISSLQPEDFATYYCQQSSSSLITFGQGTKVEIKR
For the molecule B13, the binding result in test [3] is on record as “binds”.

B14: G9.2-24 Fab (Fab, V domains shown)
VH: EVQLVESGGGLVQPGGSLRLSCAASGFTVYSSSIHWVRQAPGKGLEWVASIYSSYGYTSYADSVKGRFTISADTSKNTAYLQMNSLRAEDTAVYYCARSYSSETHYGWAMDYWGQGTLVTVSS
VL: DIQMTQSPSSLSASVGDRVTITCRASQSVSSAVAWYQQKPGKAPKLLIYSASSLYSGVPSRFSGSRSGTDFTLTISSLQPEDFATYYCQQWSQSPVTFGQGTKVEIKR
Turning to B14, the binding result in test [1] and in test [2] was “binds” in each case.

B15: G9.2-25 Fab (Fab, V domains shown)
VH: EVQLVESGGGLVQPGGSLRLSCAASGFTLSSSSIHWVRQAPGKGLEWVASIYSSYGSTSYADSVKGRFTISADTSKNTAYLQMNSLRAEDTAVYYCARQYYTYFEWYMGWGYALDYWGQGTLVTVSS
VL: DIQMTQSPSSLSASVGDRVTITCRASQSVSSAVAWYQQKPGKAPKLLIYSASSLYSGVPSRFSGSRSGTDFTLTISSLQPEDFATYYCQQSYVYYPFTFGQGTKVEIKR
For B15, the binding result in test [1] and in test [2] was “binds” throughout.
